{"source": "patent US8017829", "system": "Cre recombinase (bacteriophage P1?)", "experiment": "cell_activity", "conditions": "rice plant crosses; excision confirmed by Southern blot", "data": [{"substance": "lox site", "values": [{"measurement": "activity (% GUS+ progeny (19/75))", "result": 25.3}]}]}
